Source: IntAct's records for PubMed 18086875

Experiments:
fak2_human PTK2B [1] = target: fak2_human PTK2B (UniProt Q14289)
pak1_human PAK1 = pak1_human PAK1 (UniProt Q13153)
fak1_human PTK2 = fak1_human PTK2 (UniProt Q05397)
fak2_human PTK2B [2] = target: fak2_human PTK2B (UniProt Q14289); remark: listed apart in the source

Sequence of fak2_human PTK2B (Q14289 whole entry, looked up): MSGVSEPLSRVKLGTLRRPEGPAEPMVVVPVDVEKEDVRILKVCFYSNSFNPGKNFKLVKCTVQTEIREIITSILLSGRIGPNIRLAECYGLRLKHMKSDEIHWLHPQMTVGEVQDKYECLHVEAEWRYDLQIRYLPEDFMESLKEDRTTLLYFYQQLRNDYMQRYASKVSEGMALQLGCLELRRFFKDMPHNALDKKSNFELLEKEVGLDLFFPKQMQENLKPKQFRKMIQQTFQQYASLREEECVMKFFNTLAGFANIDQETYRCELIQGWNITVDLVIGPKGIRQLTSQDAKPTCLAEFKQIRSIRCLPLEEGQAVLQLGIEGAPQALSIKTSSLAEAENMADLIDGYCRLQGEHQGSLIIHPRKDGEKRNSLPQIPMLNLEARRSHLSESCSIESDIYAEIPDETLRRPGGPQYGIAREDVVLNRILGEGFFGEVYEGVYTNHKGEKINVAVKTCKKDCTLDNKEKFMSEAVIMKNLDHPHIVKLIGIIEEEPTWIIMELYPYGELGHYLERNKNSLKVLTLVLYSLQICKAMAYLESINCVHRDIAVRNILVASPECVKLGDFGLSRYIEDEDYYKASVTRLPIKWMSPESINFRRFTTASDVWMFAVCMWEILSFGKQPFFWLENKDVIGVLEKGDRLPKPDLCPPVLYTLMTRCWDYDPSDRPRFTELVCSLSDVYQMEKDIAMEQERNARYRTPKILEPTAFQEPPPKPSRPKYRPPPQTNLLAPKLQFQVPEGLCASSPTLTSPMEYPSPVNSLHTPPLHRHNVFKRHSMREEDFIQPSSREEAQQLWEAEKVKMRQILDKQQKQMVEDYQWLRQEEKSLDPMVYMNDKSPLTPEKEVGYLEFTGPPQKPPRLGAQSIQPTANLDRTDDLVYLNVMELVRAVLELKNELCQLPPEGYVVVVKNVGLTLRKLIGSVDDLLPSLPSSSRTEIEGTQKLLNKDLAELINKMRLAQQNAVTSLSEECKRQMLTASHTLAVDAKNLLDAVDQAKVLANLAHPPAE
Sequence of pak1_human PAK1 (Q13153 whole entry): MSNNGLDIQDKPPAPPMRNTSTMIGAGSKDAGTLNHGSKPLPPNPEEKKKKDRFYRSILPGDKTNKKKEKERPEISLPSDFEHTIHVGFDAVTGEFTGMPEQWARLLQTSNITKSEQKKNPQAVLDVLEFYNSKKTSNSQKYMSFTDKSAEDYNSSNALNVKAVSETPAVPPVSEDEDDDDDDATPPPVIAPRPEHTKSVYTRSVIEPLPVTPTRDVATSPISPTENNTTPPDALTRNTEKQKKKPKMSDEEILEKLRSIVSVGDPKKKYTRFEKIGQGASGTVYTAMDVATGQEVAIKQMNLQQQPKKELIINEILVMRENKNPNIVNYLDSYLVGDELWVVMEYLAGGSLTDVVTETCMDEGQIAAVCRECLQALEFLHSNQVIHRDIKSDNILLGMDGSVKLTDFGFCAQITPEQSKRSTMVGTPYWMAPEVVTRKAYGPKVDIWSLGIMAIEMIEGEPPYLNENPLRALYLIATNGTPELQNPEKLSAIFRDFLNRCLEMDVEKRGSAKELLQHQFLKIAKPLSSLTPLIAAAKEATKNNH
Sequence of Rho-related GTP-binding protein RhoU (Homo sapiens), Q7L0Q8 F86C (Q7L0Q8 whole entry F86C): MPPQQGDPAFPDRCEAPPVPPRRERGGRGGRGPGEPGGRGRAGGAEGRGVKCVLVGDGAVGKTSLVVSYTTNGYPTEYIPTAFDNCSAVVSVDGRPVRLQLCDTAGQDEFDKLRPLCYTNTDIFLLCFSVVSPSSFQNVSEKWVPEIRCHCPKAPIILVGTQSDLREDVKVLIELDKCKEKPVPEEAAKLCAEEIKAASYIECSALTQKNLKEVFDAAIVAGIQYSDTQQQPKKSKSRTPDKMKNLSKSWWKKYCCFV
Sequence of fak1_human PTK2 (Q05397 whole entry, looked up): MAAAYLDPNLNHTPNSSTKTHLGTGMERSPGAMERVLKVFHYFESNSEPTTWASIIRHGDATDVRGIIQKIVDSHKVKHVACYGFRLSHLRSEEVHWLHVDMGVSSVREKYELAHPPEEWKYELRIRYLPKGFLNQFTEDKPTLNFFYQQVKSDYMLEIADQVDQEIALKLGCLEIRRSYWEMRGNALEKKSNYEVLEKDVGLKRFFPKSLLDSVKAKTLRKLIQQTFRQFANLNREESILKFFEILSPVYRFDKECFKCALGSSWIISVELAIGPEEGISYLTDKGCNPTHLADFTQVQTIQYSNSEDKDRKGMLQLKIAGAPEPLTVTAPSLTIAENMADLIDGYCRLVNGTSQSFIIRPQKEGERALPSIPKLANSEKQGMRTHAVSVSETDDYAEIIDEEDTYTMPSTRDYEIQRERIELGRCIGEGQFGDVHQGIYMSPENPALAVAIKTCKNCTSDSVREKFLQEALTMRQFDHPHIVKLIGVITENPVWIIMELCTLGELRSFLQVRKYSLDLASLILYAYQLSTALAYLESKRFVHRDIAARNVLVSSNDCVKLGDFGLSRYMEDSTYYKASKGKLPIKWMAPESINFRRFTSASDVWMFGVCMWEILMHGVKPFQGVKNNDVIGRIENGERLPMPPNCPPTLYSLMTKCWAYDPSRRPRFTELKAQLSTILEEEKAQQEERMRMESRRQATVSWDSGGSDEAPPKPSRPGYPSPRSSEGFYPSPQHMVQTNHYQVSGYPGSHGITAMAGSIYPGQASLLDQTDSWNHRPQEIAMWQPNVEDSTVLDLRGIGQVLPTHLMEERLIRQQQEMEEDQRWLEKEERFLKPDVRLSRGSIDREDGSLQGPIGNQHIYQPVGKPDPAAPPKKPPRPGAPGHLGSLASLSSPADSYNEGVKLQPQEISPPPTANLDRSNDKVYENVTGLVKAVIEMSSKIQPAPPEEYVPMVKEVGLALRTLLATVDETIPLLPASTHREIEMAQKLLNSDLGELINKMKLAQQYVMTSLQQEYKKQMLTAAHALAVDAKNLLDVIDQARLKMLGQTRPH

| Substance | effect of a mutation on the interaction (fak2_human PTK2B [1]) | effect of a mutation on the interaction (pak1_human PAK1) | effect of a mutation on the interaction (fak1_human PTK2) | effect of a mutation on the interaction (fak2_human PTK2B [2]) |
| --- | --- | --- | --- | --- |
| Rho-related GTP-binding protein RhoU (Homo sapiens), Q7L0Q8 F83G | disrupting interaction |  |  |  |
| Rho-related GTP-binding protein RhoU (Homo sapiens), Q7L0Q8 F86C | disrupting interaction | decreasing interaction |  |  |
| Rho-related GTP-binding protein RhoU (Homo sapiens), Q7L0Q8 P80G | disrupting interaction | decreasing interaction |  |  |
| Rho-related GTP-binding protein RhoU (Homo sapiens), Q7L0Q8 Q107L |  |  | decreasing interaction |  |
| Rho-related GTP-binding protein RhoU (Homo sapiens), Q7L0Q8 T63N |  |  | decreasing interaction | disrupting interaction |
